Laboratory results taken from US20240076386A1 (Pfizer, published 2024).
Where a chain is given by its changes, count along the chain named.

T1: human P-selectin expressed on CHO cells (human, UniProt P16109 42-830)
T1 construct: whole, on cells; also called CHO-human P-selectin cells; CHO-P-selectin cells
T1 sequence (looked up): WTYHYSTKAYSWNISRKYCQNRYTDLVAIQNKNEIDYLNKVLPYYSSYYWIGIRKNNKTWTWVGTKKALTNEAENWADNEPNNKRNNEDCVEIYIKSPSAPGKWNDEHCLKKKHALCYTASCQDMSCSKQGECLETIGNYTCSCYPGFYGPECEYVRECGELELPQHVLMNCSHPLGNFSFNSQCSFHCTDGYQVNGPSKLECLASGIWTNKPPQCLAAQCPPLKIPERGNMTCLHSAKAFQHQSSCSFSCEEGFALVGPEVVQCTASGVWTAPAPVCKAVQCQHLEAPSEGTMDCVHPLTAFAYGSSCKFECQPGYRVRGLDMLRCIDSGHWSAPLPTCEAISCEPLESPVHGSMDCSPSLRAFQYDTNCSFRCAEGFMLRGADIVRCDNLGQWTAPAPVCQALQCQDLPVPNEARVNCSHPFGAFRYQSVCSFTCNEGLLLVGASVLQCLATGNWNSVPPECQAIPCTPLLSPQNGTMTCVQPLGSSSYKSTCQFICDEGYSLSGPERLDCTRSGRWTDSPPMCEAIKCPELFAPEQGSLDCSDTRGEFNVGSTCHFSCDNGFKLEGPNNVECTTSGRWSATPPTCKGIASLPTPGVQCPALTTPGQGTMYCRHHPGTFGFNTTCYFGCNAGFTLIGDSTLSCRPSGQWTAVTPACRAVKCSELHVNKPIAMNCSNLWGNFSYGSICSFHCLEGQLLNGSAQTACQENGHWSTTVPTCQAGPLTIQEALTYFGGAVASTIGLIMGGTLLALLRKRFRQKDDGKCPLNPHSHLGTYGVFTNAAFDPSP

T2: human E-selectin coated on the plate of the competition binding ELISA (human, UniProt P16581 22-556, limits assumed)
T2 sequence (looked up): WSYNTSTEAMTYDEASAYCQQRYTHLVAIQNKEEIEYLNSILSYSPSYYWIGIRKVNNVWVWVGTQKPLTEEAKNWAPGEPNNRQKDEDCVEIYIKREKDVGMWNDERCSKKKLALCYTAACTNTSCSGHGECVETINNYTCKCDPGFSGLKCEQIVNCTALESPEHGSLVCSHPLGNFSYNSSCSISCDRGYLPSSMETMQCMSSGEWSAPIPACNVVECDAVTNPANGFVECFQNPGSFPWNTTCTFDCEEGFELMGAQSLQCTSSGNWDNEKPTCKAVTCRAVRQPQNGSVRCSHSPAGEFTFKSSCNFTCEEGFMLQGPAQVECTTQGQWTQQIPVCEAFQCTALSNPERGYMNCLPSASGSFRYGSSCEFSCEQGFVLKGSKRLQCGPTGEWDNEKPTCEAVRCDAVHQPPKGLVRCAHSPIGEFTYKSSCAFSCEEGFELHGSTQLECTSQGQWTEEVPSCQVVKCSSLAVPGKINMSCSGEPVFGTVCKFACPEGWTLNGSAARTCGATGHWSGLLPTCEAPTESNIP

B1: anti-E-selectin antibody 0158 chimera (antibody, human IgG1, kappa, V domains shown)
VH: QVQLKESGPGLVQPSETLSLTCTVSGFSISTYNVHWLRQPPGKGLEWMGMMWSGGSPDYNSALKSRLSISRDTSKNQVFLKMNSLQSEDTTTYYCARWGGGFDYWGQGVMVTVSS
VL: DIVLTQSPTTLSVTPGETVSLSCRASHSIGTNLHWYQQKTNESPRLLIKFTSQSISGIPSRFSASGSGTDFTLNINNVEFDDVSSYFCQQTQSWPLTFGSGTKLEIKR
notes: rat VH/VL on effector-null human IgG1 and human kappa
B2: anti-E-selectin antibody 0180 chimera (antibody, human IgG1, kappa, V domains shown)
VH: EVQLQQSGAELGKPGTSVKLSCKVSGYKIRSSYMHWVNQRPGKGLEWIGRIDPANGNTIYGDKFKSKATLTSDTSSNTAYIQLSQLKSDDTAIYFCAIDIGTTFDYWGQGVMVTVSS
VL: DIQMTQSPSFLSASVGDRVTINCKASQHINRYLNWYQQKLGEAPKLLIYDANNLQTGIPSRFSGSGSGTDFTLTISSLQPEDVATYFCLQHNSWPNTFGAGTKLELKR
notes: as for B1
B3: anti-E-selectin antibody 0164 chimera (antibody, human IgG1, kappa, V domains shown)
VH: EVQLQQSGAEFGKPGTSVKLSCKVSGYNIRSSYMHWVNQRPGKGLEWIGRIDPANGNTIYAEKFKIKAILTADSSSNTAYMQLSQLKSDDTAIYFCAMDLYSTSEYWGQGVMVTVSS
VL: B2 VL with A25T, H28N, D50N, N53S, G64A, S76N, H91D, N96L, A100S, L106I
notes: as for B1
B4: anti-E-selectin antibody 0159 chimera (antibody, human IgG1, kappa, V domains shown)
VH: EVQLQQSGAELGKPGTSVKLSCKVSGYNIRSTYMHWVSQRPGKGLEWIGRIDPANGNTIYAEKFKRKATLTADTSSNTAYMQLSQLKSDDRAIYFCAMEVRVSFEYWGQGVMVTVSS
VL: DIQMTQSPSFLSASVGDRVTINCKASQNINKYLDWYQQKLGEGPKLLIYYTNNLHTGIPSRFSGSGSGTDFTLTISSLQPEDVATYFCLQHDSGYTFGAGTKLELKR
notes: as for B1
B5: anti-E-selectin antibody 0170 chimera (antibody, human IgG1, kappa, V domains shown)
VH: EVQLQQSGAELGKPGTSVKLSCKVSGYSIRSTYMHWVNQRPGKGLEWVGRIDPANGNTIYAERFKNKATLTADTSSNTAYMQLSQLKSDDTAIYFCAVEILGIFDYWGQGVMVTVSS
VL: B4 VL with N30D, G43A, I48M, Y50N, N53S, D92N
notes: as for B1
B6: optimized anti-E-selectin antibody 1282 (antibody, human IgG1, kappa, V domains shown)
VH: EVQLVESGGGLVQPGGSLRLSCAASGYAIRSAYMHWVRQAPGKGLEWVARIDPANGNTIYVDSVEGRFTISADNAKNSAYLQMNSLRAEDTAVYYCAMDLYSTSEYWGQGTLVTVSS
VL: DIQMTQSPSSLSASVGDRVTITCKTSQNIERYLNWYQQKPGKAPKLLIYAASSLQSGVPSRFSGSGSGTDFTLTISSLQPEDFATYFCLQDNAWPLTFGQGTKVEIKR
notes: effector-null human IgG1, kappa
B7: optimized anti-E-selectin antibody 1444 (antibody, human IgG1, kappa, V domains shown)
VH: B6 VH with E65T
VL: B6 VL
notes: as for B6
B8: optimized anti-E-selectin antibody 1448 (antibody, human IgG1, kappa, V domains shown)
VH: B6 VH with E65K, G66E
VL: B6 VL
notes: as for B6
B9: optimized anti-E-selectin antibody 1284 (antibody, human IgG1, kappa, V domains shown)
VH: B6 VH with D62E
VL: B6 VL
notes: as for B6

Target: T1, human P-selectin expressed on CHO cells
Test: flow cytometry, CHO cells
Protocol: Cells were maintained in growth medium at 37° C., 5% CO₂ and 95% air in a humidified incubator. Methotrexate or Zeocin were removed from the medium prior to culture for experiments. CHO-E selectin cells or P-selectin cells were detached from T-150 flasks using citric saline (135 mM KCl, 15 mM sodium citrate) and immediately re-calcified with the addition of CaCl₂) to the detached cells to a final concentration of 1 mM. Growth media was immediately added to the detached cells, then centrifuged at 300×g for 5 minutes at room temperature to pellet the cells. Cells were plated into 96-well V-bottom plates in cold CHO buffer consisting of phosphate buffered saline (PBS), pH 7.4 containing bovine serum albumin (BSA; Sigma-Aldrich) at final concentration of 1%, calcium chloride at final concentration of 1 mM, and sodium azide at a final concentration of 0.1%, for 5 minutes on wet ice. After incubation, the cells were centrifuged at 300×g for 2 minutes at 4° C. to remove the buffer.
After incubation, antibodies were removed and the cells were washed three times by centrifugation at 300×g for 1 minute at 4° C. and resuspended in cold CHO buffer. The washed cells were incubated for 30 minutes on wet ice with 100 μL of a 1:1000 dilution of APC-conjugated AffiniPure F(ab′)₂ Fragment Goat Anti-human IgG, Fcγ (Jackson Imnnunoresearch). The cells were washed three or four times prior to resuspension in CHO buffer for flow cytometric analysis. A Becton Dickinson LSRFortessa instrument using 640 nanometer laser line was used to acquire cell fluorescence data. Geometric mean fluorescence of cells was analyzed by FlowJo software package (FlowJo, LLC) and plotted against antibody concentration. The estimated EC₅₀ values were calculated using nonlinear regression analysis in the Prism suite (GraphPad, version 8) (Table 8).

binding result | Binder
no binding | B1
no binding | B2
no binding | B3
no binding | B4
no binding | B5

Target: T2, human E-selectin coated on the plate of …
Test: competition ELISA (Biotin-164 competitive ELISA) on plate-coated human E-selectin; competitor: biotinylated antibody 0164, OD450; forced degradation samples T0, T2, T4 weeks at 40 C in Tris, His or Glu buffer
Protocol: To additionally asses stability of the forced degradation samples, the activity of the stressed samples was evaluated in a competition binding ELISA. […] The human E-selectin was stored in PBS with Ca/Mg at 500 μg/mL and was diluted with PBS with Ca/Mg to a concentration of 1 μg/mL. This was added to a 384 well MaxiSorp plate, sealed and incubated at 4° C. with gentle shaking overnight. The next day the reagents in each well were removed, followed by addition of 50 μL of blocking buffer (1% BSA in PBS with Ca/Mg) to each well. The wells were sealed and incubated at room temperature for about 1 hour with gentle shaking.
Next, the wash plate was blocked with 1% BSA with PBST (0.05% Tween) on a […] for 3 cycles using 80 μL for each wash. The plate was tapped on a paper towel to drain. […] The wash step was repeated with 3 cycles of 2 washes. Then, dilute Streptavidin-HRP (˜1/7500 diluted in blocking buffer) was added to each well and the plate was incubated at room temperature with gentle shaking ˜40 minutes to 1 hour. The wash step was again repeated with 3 cycles of 2 washes, tapped dry and followed by the addition of 25 μL of TMB substrate (one component HRP microwell substrate). This was followed by the addition of 25 μL of 0.18 M sulfuric acid to stop the reaction when the color reached saturation (determined by observing the color development). The OD450 measurement of the plate was then read on the Envision plate reader, and the data was analyzed with GraphPad, Prism7.

IC50 (read off the curve) | Binder
~10 nM | B6
~10 nM | B7
~9 nM | B8
~10 nM | B9
